Reference: patent publication CN112574297A

Target: H7N9病毒的神经氨酸酶(NA) (avian influenza virus H7N9)
Assay: cell-based or functional assay

B1: 抗禽流感H7N9神经氨酸酶抗原的单克隆抗体D3 (antibody, V domains shown)
VH: IQVKLQESGPELVKPGASVKISCKASGYSFTGYYMHWVKQSHVKSLQWIGRINPYNGATSYNQNFKDKASLTVDKSSSTAYMELHSLTSEDSAVYYCARSGNYAMDYWGQGTTVTVSS
VL: DIELTQSPASLAVSLGQRATISYRASKSVSTSGYSYMHWNQQKPGQPPRLLIYLVSNLESGVPARFSGSGSGTDFTLNIHPVEEEDAATYYCQHIRELTRSEGGPSSRSN
  NA活性抑制IC50 (酶联凝集素法 ELLA): 5.22 µg/mL
